From patent publication US20250027068 come the findings set out here.

B1: PRT-500 (protein)
chain: MVTSVWTKGVTPPADFTQGEDVFHAPYVANQGWYDITKAFDGGDDLLCGAATAGNMLHWWFDQNKEYIEAYLKKHPEKQKIMFGDQELLDVRKAINTKGSQKNSELFNYFRDKAFPNLSARRLGVMPDLVLDMFINGYYLNVTKTQTTDVNRTYQEKDKRGGIFDAVFTRGDQSKLLTSRHDLKNKGLKEISDLIKQELTEGKALGLSHTYANVRINHVINLWGADFDSDGNLKAIYVTDSDSNASIGMKKYFVGVNSAGKVAISAKEIKEDNIGAQVLGLFTLSTGQDIWNQTNLEHHHHHH
B2: PRT-519 (protein)
chain: MVTSVWTKGVTPPTDFIKGEDVFHAPYKAGQGWYDITKTFNGKDNLLCGAATAGNMLHWWFDQNKEYIEAYLKKHPEKQKIIFNNQELFDLKAAINTKGSQKNSELFNYFRDKAFPNLSARRLGVFPDLVLDMFINGYYLNVTKTQTTDVNRTYQEKDKRGGIFDAVFTRGVQSKLLTSRHDLKNKGLKEISDLIKQELTEGKALGLSHTYANVRINHVINLWGADFDSDGNLKAIYVTDSDTNASIGMKKYFVGVNSAGKVAISAKEIKEDNIGAQVLGLFTLSTGQDIWNQTNLEHHHHHH
B3: PRT-464 (protein)
chain: MVTSVWTKGVTPPANFTQGEDVFHAPYVANQGWYDITKAFDGGDDLLCGAATAGNMLHWWFDQNKDQIERYLKEHPEKQKINFNGEQMFDVKEAIDTKDSQTNSELFNYFKEKAFPYLSTKHLGVFPDHVLDMFINGYRLSLTNHGPTPVKEGSKDPRGGIFDAVFTRGDQSKLLTSRHDLKNKTLKEISDLIKQELTEGKALGLSHTYANVRINHVINLWGADFDSEGNLKAIYVTDSDSNASIGMKKYFVGVNSAGKVAISAKEIKEDNIGAQVLGLFTLSTGQDIWNQTNLEHHHHHH
B4: PRT-493 (protein)
chain: MVTSVWTKGVTPPTNFTYGEDVLHAPYVANQGWYDITKTFNGKDNLLCGAATAGNMLHWWFDQNKEQIENYLKKHPEKQKIIFNNQELFDLKAAIDTKDSQLDSKLFEYFKEKAFPYLSTKHLGVFPDHVIDMFINGYRLSLTNHGPTPVKRGSKDKRGGIFDAVFTRGVQSKLLTNRHDLKNKTLKEISDLIKQELTEGKALGISHTYANVRINHVINLWGADFDAEGNLEAIYVTDSDTNASIGMKKYFVGVNSNGKVAISAKEIEEDNIGAQVLGLFTLSTGQDIWNQTNLEHHHHHH
B5: PRT-474 (protein)
chain: MVTSVWTKGVTPPTDFRKIVDGNIAYYHAPYKAGQGWYDITKAFDGGDDLLCGAATAGNMLHWWFDQNKEQIENYLKKHPEKQKINFNGEQMFDVKEAIDTKDSQTNSELFNYFKEKAFPYLSTKHLGVFPDHVIDMFINGYRLSLTNHGPTPVKRGSKDPRGGIFDAVFTRGDQSKLLTNRHDLKNKTLKEISDLIKQELTEGKALGISHTYANVRINHVINLWGADFDAEGNLEAIYVTDSDSNASIGMKKYFVGVNSNGKVAISAKEIEEDNIGAQVLGLFTLSTGQDIWNQTNLEHHHHHH
B6: PRT-451 (protein)
chain: MVTSVWTKGVTPPANFRKIVDGNIAYYHAPYKANQGWYDITKTFNGKDDLLCGAATAGNMLHWWFDQNKDQIEAYLKEHPEKQKINFNGEQMFDVKEAIDTKDDQTNSKLFEYFKEKAFPYLSTKHLGVFPDHVLDMFINGYRLSLTNHGPTPVKEGSKDPRGGIFDAVFTRGDQSKLLTSRHDLKNKTLKEISDLIKQELTEGKALALSHTYANVRINHVINLWGADFDSNGNLEAIYVTDSDSNASIGMKKYFVGVNSAGKVAISAKEIEDDNIGAQVLGLFTLSTGQDIWNQTNLEHHHHHH
B7: PRT-481 (protein)
chain: MVTSVWTKGVTPPTDFIYGEDVLHAPYKAGQGWYDITKAFDGGDDLLCGAATAGNMLHWWFDQNKEQIENYLKKHPEKQKINFNGEQMFDVKEAIDTKDSQTNSELFNYFKEKAFPYLSTKHLGVFPDHVIDMFINGYRLSLTNHGPTPVKRQEKDPRGGIFDAVFGRGDQTKLLTNRHDLKNKTLKEISDLIKQELTEGKALGISHTYANVRINHVINLWGADFDAEGNLEAIYVTDSDSNASIGMKKYFVGVNSNGKVAISAKEIEEDNIGAQVLGLFTLSTGQKIWNKTNLEHHHHHH
B8: PRT-514 (protein)
chain: MITSVWTKGVTPPTDFIKGEDVFHAPYKAGQGWYDITKAFDGGDDLLCGAATAGNMLHWWFDQNKEEIEAYLKKHPEKQKIMFGDQELLDVRKVINTKDSQTNSALFNYFKDKAFPNLSARRLGVMPDLVLDMFINGYYLNVYKTQTTDVNRQEQTKDRRGGIFDAVFGRGDQTKLLTERHDFKEKTLNEISQLIKQELTEGKALGLSHTYANVRINHVINLWGADFDAEGNLEAIYVTDSDSNASIGMKKYFVGVNSAGKVAISAKEIKEDNIGAQVLGLFTLSTGQKIWNKTNLEHHHHHH
B9: PRT-614 (protein)
chain: MQITSVWTKGVKPLTPEQFRYNNEDVIHAPYLAHQGWYDITKAFDGKDNLLCGAATAGNMLHWWFDQNKTEIEAYLSKHPEKQKIIFNNQELFDLRAAIDTKDSQTNSQLFNYFRDKAFPNLSARQLGVMPDLVLDMFINGYYLNVFKTQSTDVNRPYQDKDKRGGIFDDVFTRGDQTTLLTARHDLKNGGLNDISTIIKQELTEGRALALSHTYANVSISHVINLWGADFNAEGNLEAIYVTDSDANASIGMKKYKVGINAHGHVAISAKKIEGENIGAQVLGLFTLSSGKDIWQKLSLEHHHHHH
B10: PRT-662 (protein)
chain: MQITSVWTKGVTPLTPEQFRYNNEDVFHAPYLAHQGWYDITKAFDGKDNLLCGAATAGNMLHWWFDQNKTEIEAYLSKHPEKQKIIFNNQELFDLRAAINTKDSQTNSQLFNYFRDKAFPNLSARQLGVMPDLVLDMFINGYYLNVFKTQSTDVNRPYQDKDKRGGIFDAVFTRGDQTTLLTARHDLKNKGLNDISTLIKQELTEGRALALSHTYANVSISHVINLWGADFNAEGNLEAIYVTDSDANASIGMKKYFVGINASGHVAISAKKIEGENIGAQVLGLFTLSSGKDIWQKLSLEHHHHHH
B11: PRT-523 (protein)
chain: MITSVWTKGVTPPTDFIKGEDVFHAPYKAGQGWYDITKTFNGKDNLLCGAATAGNMLHWWFDQNKEEIEAYLKKHPEKQKIIFNNQELFDLKAVINTKDSQTNSALFNYFKDKAFPNLSARRLGVFPDLVLDMFINGYYLNVYKTQTTDVNRTYQTKDRRGGIFDAVFTRGVQSKLLTERHDLKNKTLKEISDLIKQELTEGKALGLSHTYANVRINHVINLWGADFDSNGNLEAIYVTDSDTNASIGMKKYFVGVNSAGKVAISAKEIKEDNIGAQVLGLFTLSTGQDIWNQTNLEHHHHHH
B12: PRT-453 (protein)
chain: MVTSVWTKGVTPPANFTQGEDVFHAPYKANQGWYDITKTFNGKDDLLCGAATAGNMLHWWFDQNKDQIEAYLKEHPEKQKINFNGEQMFDVKEAIDTKDDQTNSKLFEYFKEKAFPYLSTKHLGVFPDHVLDMFINGYRLSLTNHGPTPVKEGSKDPRGGIFDAVFTRGDQSKLLTSRHDLKNKTLKEISDLIKQELTEGKALALSHTYANVRINHVINLWGADFDSNGNLEAIYVTDSDSNASIGMKKYFVGVNSAGKVAISAKEIEDDNIGAQVLGLFTLSTGQDIWNQTNLEHHHHHH
B13: PRT-487 (protein)
chain: MVTSVWTKGVTPPTDFIKGEDVFHAPYKAGQGWYDITKTFNGKDNLLCGAATAGNMLHWWFDQNKDQIERYLKEHPEKQKIIFNNQELFDLKAAIDTKDSQTDSKLFEYFKEKAFPYLSTKHLGVFPDHVLDMFINGYRLSLTNHGPTPVKEGSKDKRGGIFDAVFTRGVQSKLLTSRHDLKNKTLKEISDLIKQELTEGKALGLSHTYANVRINHVINLWGADFDSEGNLKAIYVTDSDTNASIGMKKYFVGVNSAGKVAISAKEIKEDNIGAQVLGLFTLSTGQDIWNQTNLEHHHHHH

For this data set, the target named is pooled human IgG (human IgG1, 2, 3 and 4).
B1: the Enzyme Activity Endpoint Assay: Fab′2 was found to be 25 ng/µL, the Enzyme Activity Endpoint Assay: Fc was 30 ng/µL, the Enzyme Activity Endpoint Assay: IgG is 0 ng/µL and the Enzyme Activity Endpoint Assay: scIgG is 0 ng/µL.

As to B2, the Enzyme Activity Endpoint Assay: Fab′2 came to 0 ng/µL, the Enzyme Activity Endpoint Assay: Fc came out at 17 ng/µL, the Enzyme Activity Endpoint Assay: IgG stood at 0 ng/µL and the Enzyme Activity Endpoint Assay: scIgG stood at 0 ng/µL.

For the protein B3, the Enzyme Activity Endpoint Assay: Fab′2 turned out to be 0 ng/µL, the Enzyme Activity Endpoint Assay: Fc was determined as 58 ng/µL, the Enzyme Activity Endpoint Assay: IgG amounted to 0 ng/µL and the Enzyme Activity Endpoint Assay: scIgG was found to be 0 ng/µL.

B4 returned an Enzyme Activity Endpoint Assay: Fab′2 of 1170 ng/µL, an Enzyme Activity Endpoint Assay: Fc of 412 ng/µL, an Enzyme Activity Endpoint Assay: IgG of 0 ng/µL and an Enzyme Activity Endpoint Assay: scIgG of 0 ng/µL.

The protein B5 displayed an Enzyme Activity Endpoint Assay: Fab′2 of 462 ng/µL, an Enzyme Activity Endpoint Assay: Fc of 156 ng/µL, an Enzyme Activity Endpoint Assay: IgG of 0 ng/µL and an Enzyme Activity Endpoint Assay: scIgG of 229 ng/µL.

B6 came in with an Enzyme Activity Endpoint Assay: Fab′2 of 1250 ng/µL, an Enzyme Activity Endpoint Assay: Fc of 324 ng/µL, an Enzyme Activity Endpoint Assay: IgG of 0 ng/µL and an Enzyme Activity Endpoint Assay: scIgG of 0 ng/µL.

B7 showed an Enzyme Activity Endpoint Assay: Fab′2 of 1380 ng/µL, an Enzyme Activity Endpoint Assay: Fc of 429 ng/µL, an Enzyme Activity Endpoint Assay: IgG of 65 ng/µL and an Enzyme Activity Endpoint Assay: scIgG of 0 ng/µL.

Take B8: the Enzyme Activity Endpoint Assay: Fab′2 was 64 ng/µL, the Enzyme Activity Endpoint Assay: Fc was 37 ng/µL, the Enzyme Activity Endpoint Assay: IgG stood at 0 ng/µL and the Enzyme Activity Endpoint Assay: scIgG is 0 ng/µL.

For the protein B9, the Enzyme Activity Endpoint Assay: Fab′2 is 0 ng/µL, the Enzyme Activity Endpoint Assay: Fc turned out to be 0 ng/µL, the Enzyme Activity Endpoint Assay: IgG is 0 ng/µL and the Enzyme Activity Endpoint Assay: scIgG was determined as 0 ng/µL.

In turn, B10 returned an Enzyme Activity Endpoint Assay: Fab′2 of 8 ng/µL, an Enzyme Activity Endpoint Assay: Fc of 13 ng/µL, an Enzyme Activity Endpoint Assay: IgG of 0 ng/µL and an Enzyme Activity Endpoint Assay: scIgG of 0 ng/µL.

B11 had an Enzyme Activity Endpoint Assay: Fab′2 of 17 ng/µL, an Enzyme Activity Endpoint Assay: Fc of 24 ng/µL, an Enzyme Activity Endpoint Assay: IgG of 0 ng/µL and an Enzyme Activity Endpoint Assay: scIgG of 0 ng/µL.

For the protein B12, the Enzyme Activity Endpoint Assay: Fab′2 was 1620 ng/µL, the Enzyme Activity Endpoint Assay: Fc was 607 ng/µL, the Enzyme Activity Endpoint Assay: IgG was 17 ng/µL and the Enzyme Activity Endpoint Assay: scIgG came out at 0 ng/µL.

For B13, the Enzyme Activity Endpoint Assay: Fab′2 came out at 0 ng/µL, the Enzyme Activity Endpoint Assay: Fc was 22 ng/µL, the Enzyme Activity Endpoint Assay: IgG stood at 0 ng/µL and the Enzyme Activity Endpoint Assay: scIgG came out at 0 ng/µL.
